Data on one substance can be found in US20150315267A1.

For the test, the target named is soluble, freshly prepared monomeric Aβ(1-40) (UniProt P05067). Nature of the test: capture ELISA, antibody immobilized, soluble monomeric Aβ(1-40) in solution.

3D6 (antibody) displayed an EC50 of 1 nM.

The term EC50 denotes the concentration giving half of the maximal effect.
